# Assay results taken from article PMC11949031.
# Changes are numbered by the printed parent chain.
# T1: His-tagged UNC45A p.Leu237Pro mutant, Q9H3U1-1
# T1 chain: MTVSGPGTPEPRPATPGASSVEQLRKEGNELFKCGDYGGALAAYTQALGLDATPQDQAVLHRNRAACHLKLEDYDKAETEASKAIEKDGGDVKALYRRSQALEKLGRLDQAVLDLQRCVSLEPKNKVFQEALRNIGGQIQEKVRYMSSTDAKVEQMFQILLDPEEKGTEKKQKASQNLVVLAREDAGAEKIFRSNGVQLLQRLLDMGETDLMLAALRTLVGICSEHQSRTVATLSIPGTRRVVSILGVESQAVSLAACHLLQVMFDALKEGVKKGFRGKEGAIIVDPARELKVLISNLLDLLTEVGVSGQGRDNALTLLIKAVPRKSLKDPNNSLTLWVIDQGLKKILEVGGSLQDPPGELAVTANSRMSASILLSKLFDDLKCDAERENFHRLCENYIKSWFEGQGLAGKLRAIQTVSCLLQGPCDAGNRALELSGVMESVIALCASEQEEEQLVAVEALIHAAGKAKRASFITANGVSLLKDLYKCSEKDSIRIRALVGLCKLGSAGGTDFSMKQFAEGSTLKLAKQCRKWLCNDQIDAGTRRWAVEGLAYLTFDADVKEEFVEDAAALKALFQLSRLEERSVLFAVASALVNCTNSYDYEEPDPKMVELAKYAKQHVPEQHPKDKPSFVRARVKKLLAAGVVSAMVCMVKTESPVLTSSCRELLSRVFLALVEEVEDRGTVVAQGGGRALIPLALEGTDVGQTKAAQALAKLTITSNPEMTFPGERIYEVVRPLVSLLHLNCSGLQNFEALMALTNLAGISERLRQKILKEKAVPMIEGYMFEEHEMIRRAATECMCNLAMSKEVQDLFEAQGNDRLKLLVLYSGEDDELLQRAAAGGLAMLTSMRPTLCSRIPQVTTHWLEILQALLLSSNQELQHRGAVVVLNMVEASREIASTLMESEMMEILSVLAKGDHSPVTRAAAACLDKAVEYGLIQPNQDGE
# T2: His-tagged UNC45A wild-type, Q9H3U1-1
# T2 chain: T1 chain with P237L
# T3: HA-tagged UNC45A wild-type (Unc-45 myosin chaperone A), Q9H3U1-1
# T3 chain: T1 chain with P237L
# B1: m1 (prey) and m3 (bait) p.Leu237Pro (HA-tagged prey); p.Leu237Pro (His-tagged bait) (protein)
# chain: T1 chain
# B2: HA-tagged UNC45A wild-type (Unc-45 myosin chaperone A), Q9H3U1-1 p.Leu237Pro (protein)
# chain: T1 chain
# B3: His-tagged UNC45A wild-type, Q9H3U1-1 p.Leu237Pro (protein)
# chain: T1 chain
# Assays:
# Assay in all cases: Ni-NTA pull-down with immunoblot quantification (ImageJ)
# Conditions in all cases: chain shown with the change; U2OS UNC45A-KO cells cotransfected; 5 independent experiments; parent: est. 1; read off a plot
# [1] = target: T1, His-tagged UNC45A p.Leu237Pro mutant, …
# [2] = target: T2, His-tagged UNC45A wild-type, Q9H3U1-1
# [3] = target: T3, HA-tagged UNC45A wild-type (Unc-45 …)
binder,measurement,setting,value
B1,ratio to parent,[1],12 fold change
B2,ratio to parent,[2],1.6 fold change
B3,ratio to parent,[3],2.2 fold change
